“And” between values parts separate entries of the source, which are not always exact repeats. Equal entries are not always repeated. Where two headings read alike, the source gives them in different places.

Test [1] has as its target T1, human interleukin 13 receptor subunit alpha 2 (IL-13RA2) (human, UniProt Q14627 27-380).
T1 construct: whole, on cells; also called IL-13Rα2; CD213A2
T1 sequence (looked up): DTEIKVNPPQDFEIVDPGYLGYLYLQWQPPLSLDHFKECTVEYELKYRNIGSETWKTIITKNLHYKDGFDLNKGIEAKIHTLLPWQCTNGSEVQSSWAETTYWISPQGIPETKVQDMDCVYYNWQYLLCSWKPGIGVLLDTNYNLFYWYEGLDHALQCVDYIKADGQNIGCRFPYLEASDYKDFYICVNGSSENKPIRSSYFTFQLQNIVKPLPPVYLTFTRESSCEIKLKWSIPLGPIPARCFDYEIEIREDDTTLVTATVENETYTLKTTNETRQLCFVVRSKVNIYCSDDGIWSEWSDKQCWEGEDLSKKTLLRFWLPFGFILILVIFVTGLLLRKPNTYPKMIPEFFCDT
The experiment in a line: FACS on A375 cells. Here is the method: A375 cells that endogenously expressed IL-13RA2, were harvested from flasks. 100 μl of 1×10⁶ cells/ml of cells were incubated with primary humanized antibodies in 4-fold serial dilutions starting from 200 nM to 0.003 nM for 30 minutes on ice. After being washed with 200 μl of FACS buffer twice, cells were incubated with secondary antibody for 30 minutes on ice. Cells were washed with 200 μl of FACS buffer twice and analyzed by FACS.

Test [2] has as its target T1, human interleukin 13 receptor subunit …. The experiment in a line: FACS on A375 cells. Here is the method:
A375 cells that endogenously expressed IL-13RA2, were harvested from flasks. 100 μl of 1×10⁶ cells/ml of cells were incubated with primary chimeric antibodies in 3-fold serial dilutions starting from 300 nM to 0.002 nM for 30 minutes on ice. After being washed with 200 μl of FACS buffer twice, cells were incubated with secondary antibody for 30 minutes on ice. Cells were washed with 200 μl of FACS buffer twice and analyzed by FACS.
As shown in FIG. 3 and Table 4, the chimeric antibodies bound to human IL-13RA2 at different EC50.
This is another data set of the same source.

The target is the same in test [3]. The test is described as follows: cell-based or functional assay.

B1: xi72B4H4 hIgG1 (antibody, V domains shown)
VH: QVQLQQPGAERVRPGASVKLSCKASGYTFTNYWMNWVKQRPEQGLEWIGRIDPYAGETHYNQKFKDKAILTVDKSSSTAYMQLRSLTSEDSAVYYCARGYGDSYGMDHWGQGTSVTVSS
VL: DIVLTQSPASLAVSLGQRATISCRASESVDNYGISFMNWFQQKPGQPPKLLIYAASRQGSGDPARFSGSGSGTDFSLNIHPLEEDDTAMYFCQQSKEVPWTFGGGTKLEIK
For the molecule B1, the EC50 – broadly, the concentration needed to bring the measured effect to its halfway point – in test [1] was 0.36 nM and 0.581 nM. In addition, in test [2], the EC50 turned out to be 0.85 nM and the “Top (MFI)” value was found to be 16900 MFI. Also, in test [3], the “internalization EC50 (pHAb dye), A375 cells” value was 1.06 nM; the “internalization EC50 (pHAb dye), CHO-K1/H_IL-13RA2 cells” value turned out to be 2.92 nM; the “internalization EC50 (pHAb dye), HEK-293/H IL-13RA2 cells” value was 2.18 nM; the “internalization Top (MFI), A375 cells” value is 5260 MFI. In addition, in test [3], the “internalization Top (MFI), CHO-K1/H_IL-13RA2 cells” value amounted to 18700 MFI and the “internalization Top (MFI), HEK-293/H IL-13RA2 cells” value was found to be 19500 MFI.

For the origin of these results see patent publication US20250163164A1 (LANOVA MEDICINES DEVELOPMENT, published 2025).
